According to patent US9987242B2, “Treatment of Levodopa-induced Dyskinesias” (NORTHWESTERN UNIVERSITY, priority 2015, dated 2018):
Entries after “also recorded” stand apart in the source; their conditions may differ.

Legend:
[1] = tested on: primate dyskinetic scores; assay: Primate dyskinesia scores; assay type: in vivo; conditions: with L-DOPA; n=4
Excerpt: FIG. 12. Plot of sum of primate dyskinesia scores (median) as a function of time (Fr=11.64, n=4; p<0.01, Friedman's test).
(§1) FIG. 18. […] Data are represented as median.

PD disability = assay: Primate PD disability (anti-parkinsonian effect of L-DOPA); assay type: in vivo; conditions: with L-DOPA; n=4; p>0.05
Excerpt: as §1

iSPNs = assay: Spike-timing-dependent LTD induction (post-pre pairing) in iSPNs, ex vivo slices; assay type: cell-based, mice; conditions: MT3 100 nM
Procedure: Mice were deeply anesthetized intraperitoneally with a mixture of ketamine (50 mg kg−1) and xylazine (4 mg kg−1) and perfused transcardially with 5-10 ml of ice-cold artificial CSF (aCSF) comprising (in mM): 125 NaCl, 2.5 KCl, 1.25 NaH2PO4, 2.0 CaCl2, 1.0 MgCl2, 26 NaHCO3 and 10 glucose (305 mOsm l^−1). Parasagittal corticostriatal slices (250 μm) were cut in ice-cold external solution containing (mM) 110 choline chloride, 26 NaHCO3, 1.25 NaH2PO4, 2.5 KCl, 0.5 CaCl2, 7 MgCl2, 11.6 sodium ascorbate, 3.1 sodium pyruvate and 5 glucose (305 mOsm l^−1). Slices were then transferred to a holding chamber containing aCSF. After an incubation period at 34° C. for 30 min, the slices were then kept in the holding chamber at the room temperature for another 30 min before use.
(§2) To determine if M4Rs were modulating synaptic plasticity, a spike-timing-dependent plasticity (STDP) paradigm was used. […] Once identified, neurons were monitored and controlled with perforated-patch recording to preserve intracellular signaling mechanisms and to allow stable, long-term monitoring of synaptic strength (FIG. 1A).

[2] = tested on: dSPN glutamatergic synapses; assay: Spike-timing-dependent LTD induction (post-pre pairing) in dSPNs, ex vivo corticostriatal slices, perforated-patch or whole-cell recording; assay type: cell-based, mice
Excerpt: Male C57Bl/6 and FVB mice expressing tdTomato or eGFP under control of either the Drd1 or Drd2 receptor regulatory elements were used. All the mice used for the study were hemizygous for these transgenes. For some experiments, D1-tdTomato BAC mice were crossed with a transgenic line expressing Cre recombinase under control of the ChAT promoter. All mice were 8-10 weeks of age before stereotaxic surgery. Animal use procedures were reviewed and approved by the Northwestern Institutional Animal Care and Use Committee.
Slices were then transferred to a holding chamber containing aCSF. After an incubation period at 34° C. for 30 min, the slices were then kept in the holding chamber at the room temperature for another 30 min before use.
Individual slices were transferred to a recording chamber and were continuously perfused (2-3 ml min^−1) with aCSF for the duration of the experiment. Experiments were performed in the dorsolateral striatum at elevated temperature (30-31° C.).
All the recordings were made using a MultiClamp 700 A amplifier, and signals were filtered at 2 kHz and digitized at 10 kHz. Data were excluded when the series resistance changed >20% over the time course of the experiment. […] Capacitance current was continuously monitored during perforation by applying a 5-10 mV pulse from a holding potential of −70 mV. The amplifier bridge circuit was adjusted to compensate for series resistance and continuously monitored during recordings. Electrode capacitance was also compensated. Data were excluded when the input resistance (Ri) changed >20% over the time course of the experiment.
Data analysis was conducted with Igor Pro 6 (Wavemetrics, Lake Oswego, Oreg.) and Clampfit 9 (Molecular Devices). EPSP amplitude was calculated from 50-60 sweeps immediately before the start of induction and 20-30 min after the end of induction. The change in EPSP amplitude was calculated by averaging EPSP values after the induction and normalized to the average baseline EPSP amplitude. Compiled data were expressed as mean±s.e.m. Statistical tests were performed using Excel (Microsoft, Redmond, Wash.) and SigmaStat (Systat, San Jose, Calif.). Non-parametric Mann-Whitney or Wilcoxon tests were used to assess the experiment results, using a probability threshold of 0.05.
as §2
Synaptic plasticity was induced by pairing local stimulation of glutamatergic afferent fibers with postsynaptic spikes evoked by short bursts of intracellular current injection that were repeated at 5 Hz (FIGS. 1B, 4A).

| Molecule | primate dyskinetic scores [1] | anti-parkinsonian effect of L-DOPA on PD disability (PD disability) | LTD induction in iSPNs (iSPNs) | LTD induction in dSPNs ([2]; MT3 100 nM with CNO) | LTD induction in dSPNs (EPSP amplitude) ([2]; MT3 100 nM with physostigmine 10 μM + VU10010 5 μM, 20 repetitions) | LTD induction in dSPNs (EPSP amplitude) ([2]; post-pre pairing, MT3 100 nM along with SCH23390) |
| --- | --- | --- | --- | --- | --- | --- |
| Cc1nnc2sc(C(=O)NCc3ccc(-c4cccnc4F)cc3)c(N)c2c1C [VU0476406] | reduction in primate dyskinetic scores | did not occur at the expense of anti-parkinsonian effect of L-DOPA | – | – | – | – |
| muscarinic toxin 3 (protein, UniProt P81031 1-65, looked up) Muscarinic toxin 3: LTCVTKNTIFGITTENCPAGQNLCFKRWHYVIPRYTEITRGCAATCPIPENYDSIHCCKTDKCNE | – | – | LTD was induced | LTD was blunted | induction was blunted | blocked induction of LTD; also recorded: LTD was disrupted |
